Experimental data from article PMC7851962.

Molecular target: GFP-EB1-A7 (UniProt Q15691)
Assay: co-IP

Chain of UniProt Q15691 (Q15691 whole entry): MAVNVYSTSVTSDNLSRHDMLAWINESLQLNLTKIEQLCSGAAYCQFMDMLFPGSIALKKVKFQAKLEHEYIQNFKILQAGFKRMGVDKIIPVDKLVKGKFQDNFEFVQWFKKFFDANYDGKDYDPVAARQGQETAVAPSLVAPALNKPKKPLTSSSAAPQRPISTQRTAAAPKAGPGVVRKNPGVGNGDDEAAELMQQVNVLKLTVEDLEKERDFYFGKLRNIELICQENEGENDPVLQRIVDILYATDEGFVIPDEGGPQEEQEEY

percent of the amount co-immunoprecipitated with WT EB1: 50%
B1: Arl4D^WT expressed in COS-7 cells (natural protein)
chain: MGNHLTEMAPTASSFLPHFQALHVVVIGLDSAGKTSLLYRLKFKEFVQSVPTKGFNTEKIRVPLGGSRGITFQVWDVGGQEKLRPLWRSYTRRTDGLVFVVDAAEAERLEEAKVELHRISRASDNQGVPVLVLANKQDQPGALSAAEVEKRLAVRELAAATLTHVQGCSAVDGLGLQQGLERLYEMILKRKKAARGGKKRR
